B1: HDV Ribozyme (parent)
chain: GGCCGGCAUGGUCCCAGCCUCCUCGCUGGCGCCGGCUGGGCAACAUUCCGAGGGGACCGUCCCCUCGGUAAUGGCGAAUGGGACCCA

In the series the parent is B1. The experiment in a line: self-cleavage, relative activity (ratio to wild type); higher = more cleavage; co-transcriptional.
Take GGCCAGCAUGGUCACAGCCUCCUCGCUGGCGCCGGCUGGGCAACAUUCCGAGGGGACCGUCCCCUCGGUAAUGGCGAAUGGGACCCA: the self-cleavage was 0. Under GGCUGGCAUGGUCCCAGCCUCCUCGCUGACGCCGGCUGGGCAACAUUCCGAGGGGACCGUCCCCUCGGUAAUGGCGAAUGGGACCCA stands 0; under GGCUGGCAUGGUCCCAGCCUCCUCGCUGCCGCCGGCUGGGCAACAUUCCGAGGGGACCGUCCCCUCGGUAAUGGCGAAUGGGACCCA, 0.0396. The same measure for GGCUGGCAUGGUCCCAGCCUCCUCGCUGGCGCCGGCUGCGCAACAUUCCGAGGGGACCGUCCCCUCGGUAAUGGCGAAUGGGACCCA: 0.0536; for GGCUGGCAUGGUCCCAGCCUCCUCGCUGGCGCCGGCUGGGCAACAUUCCGAGGGGACCCUCCCCUCGGUAAUGGCGAAUGGGACCCA: 0.81; for GGCUGGCAUGGUCCCAGCCUCCUCGCAGGCGCCGGCUGGGCAACAUUCCGAGGGGACCGUCCCCUCGGUAAUGGCGAAUGGGACCCA: 0.246. Under GGCUGGCAUGGUCCCAGCCUCCUCGCGGGCGCCGGCUGGGCAACAUUCCGAGGGGACCGUCCCCUCGGUAAUGGCGAAUGGGACCCA stands 0.453. As for GGCUGGCAUGGUCCCAGCCUCCUCGCUGGCGCCGGCUGGGCAACAUUCCGAGGGGACCGUCCCCUCGAUAAUGGCGAAUGGGACCCA, the self-cleavage was determined as 0.604.

In the case of GGCUGGCAUGGUCCCAGCCUCCUCGCUGGCGCCGGCUGGGCAACAUUCCGAGGGGACCGUCCCCUCGCUAAUGGCGAAUGGGACCCA, the self-cleavage is 0.635. The same measure for GGCUGGCAUGGUCCCAGCCUCCUCGCUGGCGCCGGCUGGGCAACAUACCGAGGGGACCGUCCCCUCGGUAAUGGCGAAUGGGACCCA: 0.739; for GGCUGGCAUGGUCCCAGCCUCCUCGCUGGCGCCGGCUGGGCAACAUUCCGAGGGGACCGUCCCCUCGGUAAUGGCGAACGGGACCCA: 0.136. Under GGCUGGCAUGGUCCCAGCCUCCUCGCUGGCGCCGGCUGGGCAACAUUCCGAGGGGACCGUCCCCUCGGUAAUAGCGAAUGGGACCCA stands 0.293; under GGCCAGCAUGGUCCCAGCCUCCUCGCUGGCGCCGGCUGGGCAACAUUCCGAGGGGACCGUCCCCUCGGUAAUGGCGAAUGGGACCCA, 0.199; under GGCCAGCAUGGUCCCAGCCUCCUCGCUGGCGCCGGCUGGGCAACAUUCCGAGGGGACCGUCCCCUCGGUAAUGGCGAAUGGGACCCC, 0.124. Under GGCUGGCAUGGCCCCAGCCUCCUCGCUGGCGCCGGCUGGGCAACAUUCCGAGGGGACCGUCCCCUCGGUAAUGGCGAAUGGGACCCA stands 0.145; under GGCUGGCAUGGACCCAGCCUCCUCGCUGGCGCCGGCUGGGCAACAUUCCGAGGGGACCGUCCCCUCGGUAAUGGCGAAUGGGACCCA, 0.111; under GGCUGGCAUGGUCCCAGCCUCCUCGCUGGCGCCGGCUUGGCAACAUUCCGAGGGGACCGUCCCCUCGGUAAUGGCGAAUGGGACCCA, 0.13. On to GGCUGGCAUGGUCCCAGCCUCCUCGCUGGCGCCGGCUAGGCAACAUUCCGAGGGGACCGUCCCCUCGGUAAUGGCGAAUGGGACCCA, for which the self-cleavage is 0.0978. Turning to GGCCAGCAUGGUCCCAGCCUCCUCGCUGGCGCCGGCUGGGCAACAUUCCGAGGGGUCCGUCCCCUCGGUAAUGGCGAAUGGGACCCA, the self-cleavage was found to be 0.106.

Regarding GGCCAGCAUGGUCCCAGCCUCCUCGCUGGCGCCGGCUGGGCAACAUUCCGAGGGGGCCGUCCCCUCGGUAAUGGCGAAUGGGACCCA, the self-cleavage is 0.225.

For the variant GGCUGGCAUGGUCCCAGCCUCCUCGCUGGCGCCGGCUGGGCAACAUUCCUAGGGGACCGUCCCCUCGGUAAUGGCGAAUGGGACCCA, the self-cleavage is 0.656. For GGCCAGCAUGGUCCCAGCCUCCUCGCUGGCGCCGGCUGGGCAACAUUCCGUGGGGACCGUCCCCUCGGUAAUGGCGAAUGGGACCCA, the self-cleavage was 0.104. Under GGCCAGCAUGGUCCCAGCCUCCUCGCUGGCGCCGGCUGGGCAACAUUCCGGGGGGACCGUCCCCUCGGUAAUGGCGAAUGGGACCCA stands 0.203; under GGCCAGCAUGGUCCCAGCCUCCUCGCUGGCGCCGGCUGGGCAACAUUCCGAGGGGACCGUCCCCUCGGUUAUGGCGAAUGGGACCCA, 0.19. On to GGCCAGCAUGGUCCCAGCCUCCUCGCUGGCGCCGGCUGGGCAACAUUCCGAGGGGACCGUCCCCUCGGUAAUGGCGAAUGGGUCCCA, for which the self-cleavage was found to be 0.0426. Under GGCCAGCAUGGUCCCAGCCUCCUCGCUGGCGCCGGCUGGGCAACAUUCCGAGGGGACCGUCCCCUCGGUAAUGGCGAAUGGGCCCCA stands 0.175. Take GGCCAGCAUGGUCCCAGCCUCCUCGCUGGCGCCGGCUGGGCAACAUUCCGAGGGGACCGUCCCCUCGGUAUUGGCGAAUGGGACCCA: the self-cleavage is 0.231. The same measure for GGCUGGCAUGGUCCCAGCCUCCUCGCUGGCGCCGGCUGGGCAACAUUCCGAGGGGACCGUCCCCUCGGUAAUGGCGAAUGCGACCCA: 0.135; for GGCUGGCAUGGUCCCAGCCUCCUCGCUGGCGCCGGCUGGUCAACAUUCCGAGGGGACCGUCCCCUCGGUAAUGGCGAAUGGGACCCA: 0.48.

As to GGCUGGCAUGGUCCCAGCCUCCUCGCUGGCGCCGGCUGGGCAACAUUCCGAGGGGACCGGCCCCUCGGUAAUGGCGAAUGGGACCCA, the self-cleavage stood at 0.939. Consider GGCUGGCAUGGUCCCAGCCUCCUCGCUGGCGCCGGCAGGGCAACAUUCCGAGGGGACCGUCCCCUCGGUAAUGGCGAAUGGGACCCA, for which the self-cleavage came to 0. For the variant GGCCAGCAUGGUCCCGGCCUCCUCGCUGGCGCCGGCUGGGCAACAUUCCGAGGGGACCGUCCCCUCGGUAAUGGCGAAUGGGACCCA, the self-cleavage was 0.35.

Values taken from the RNAGym collection of RNA variant scans (doi:10.7554/elife.80360).
